Test results: publication PMC11939848, “Aptamer-Based Graphene Field-Effect Transistor Biosensor for Cytokine Detection in Undiluted Physiological Media for Cervical Carcinoma Diagnosis”

Columns and labels:
IL-6 [1] = molecular target: T1, IL-6 (UniProt P05231 30-212); assay: graphene FET (Hill-Langmuir fit); 1000 Da PEG, PBS; 1x PBS, artificial sweat (10x diluted or undiluted) or undiluted lavage fluid; aptamer immobilized on graphene; pH and temperature not stated; conditions: protein: commercial
T1 sequence (P05231 30-212): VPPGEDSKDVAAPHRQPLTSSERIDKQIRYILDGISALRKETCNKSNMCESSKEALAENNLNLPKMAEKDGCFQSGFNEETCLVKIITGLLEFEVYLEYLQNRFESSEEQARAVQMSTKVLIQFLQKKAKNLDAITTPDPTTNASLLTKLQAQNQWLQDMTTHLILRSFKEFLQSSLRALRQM

IL-6 [2] = molecular target: T1, IL-6; assay: graphene FET (Hill-Langmuir fit); 2000 Da PEG, undiluted lavage fluid; 1x PBS, artificial sweat (10x diluted or undiluted) or undiluted lavage fluid; aptamer immobilized on graphene; pH and temperature not stated; conditions: protein: commercial
IL-6 [3] = molecular target: T1, IL-6; assay: graphene FET (Hill-Langmuir fit); 2000 Da PEG, PBS; 1x PBS, artificial sweat (10x diluted or undiluted) or undiluted lavage fluid; aptamer immobilized on graphene; pH and temperature not stated; conditions: protein: commercial
IL-6 [4] = molecular target: T1, IL-6; assay: graphene FET (Hill-Langmuir fit); 1000 Da PEG, undiluted lavage fluid; 1x PBS, artificial sweat (10x diluted or undiluted) or undiluted lavage fluid; aptamer immobilized on graphene; pH and temperature not stated; conditions: protein: commercial
TNF-alpha [5] = molecular target: T2, TNF-alpha (UniProt P01375 77-233); assay: graphene FET (Hill-Langmuir fit); 2000 Da PEG, 1x PBS; 1x PBS, artificial sweat (10x diluted or undiluted) or undiluted lavage fluid; aptamer immobilized on graphene; pH and temperature not stated; conditions: protein: commercial; chain copies: 3; G-quadruplex, two G-tetrads
T2 sequence (P01375 77-233): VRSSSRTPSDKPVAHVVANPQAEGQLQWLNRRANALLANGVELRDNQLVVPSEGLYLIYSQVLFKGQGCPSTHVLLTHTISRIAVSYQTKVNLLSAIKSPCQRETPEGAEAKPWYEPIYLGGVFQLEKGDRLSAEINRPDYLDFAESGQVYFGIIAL

TNF-alpha [6] = molecular target: T2, TNF-alpha; assay: graphene FET (Hill-Langmuir fit); no PEG, 1x PBS; 1x PBS, artificial sweat (10x diluted or undiluted) or undiluted lavage fluid; aptamer immobilized on graphene; pH and temperature not stated; conditions: protein: commercial; chain copies: 3; G-quadruplex, two G-tetrads
TNF-alpha [7] = molecular target: T2, TNF-alpha; assay: graphene FET (Hill-Langmuir fit); 1000 Da PEG, 1x PBS; 1x PBS, artificial sweat (10x diluted or undiluted) or undiluted lavage fluid; aptamer immobilized on graphene; pH and temperature not stated; conditions: protein: commercial; chain copies: 3; G-quadruplex, two G-tetrads

Binder | Kd (IL-6 [1]) [pM] | Kd (IL-6 [2]) [pM] | Kd (IL-6 [3]) [pM] | Kd (IL-6 [4]) [pM] | Kd (TNF-alpha [5]) [pM] | Kd (TNF-alpha [6]) [pM] | Kd (TNF-alpha [7]) [pM]
GGTGGCAGGAGGACTATTTATTTGCTTTTCT (ssDNA, 5'-NH2) [IL-6 aptamer] | 84 ± 23 | 194 ± 23 | 188 ± 52 | 570 ± 96 |  |  | 
TGGTGGATGGCGCAGTCGGCGACAA (ssDNA, 5'-NH2) [TNF-alpha aptamer] |  |  |  |  | 1210 ± 440 | 2820 ± 190 | 1520 ± 350
